Data on 2 substances can be found in IntAct's records for PubMed 17267444.

Among the targets are scar2_arath SCAR2 (UniProt Q5XPJ9); scarl_arath WAVE5 (UniProt Q5XPK0); spk1_arath SPK1 (UniProt Q8SAB7); scar1_arath SCAR1 (UniProt Q6AWX6).

Rac-like GTP-binding protein ARAC9 (Arabidopsis thaliana (Mouse-ear cress)), Q9XGU0 G27V, sequence (Q9XGU0 whole entry G27V): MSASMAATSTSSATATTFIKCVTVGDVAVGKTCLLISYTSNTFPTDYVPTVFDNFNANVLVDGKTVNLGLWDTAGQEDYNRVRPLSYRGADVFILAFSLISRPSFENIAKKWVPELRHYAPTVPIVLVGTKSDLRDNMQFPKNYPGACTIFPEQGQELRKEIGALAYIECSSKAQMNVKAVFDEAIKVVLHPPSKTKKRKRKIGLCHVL
scar2_arath SCAR2, sequence (Q5XPJ9 whole entry): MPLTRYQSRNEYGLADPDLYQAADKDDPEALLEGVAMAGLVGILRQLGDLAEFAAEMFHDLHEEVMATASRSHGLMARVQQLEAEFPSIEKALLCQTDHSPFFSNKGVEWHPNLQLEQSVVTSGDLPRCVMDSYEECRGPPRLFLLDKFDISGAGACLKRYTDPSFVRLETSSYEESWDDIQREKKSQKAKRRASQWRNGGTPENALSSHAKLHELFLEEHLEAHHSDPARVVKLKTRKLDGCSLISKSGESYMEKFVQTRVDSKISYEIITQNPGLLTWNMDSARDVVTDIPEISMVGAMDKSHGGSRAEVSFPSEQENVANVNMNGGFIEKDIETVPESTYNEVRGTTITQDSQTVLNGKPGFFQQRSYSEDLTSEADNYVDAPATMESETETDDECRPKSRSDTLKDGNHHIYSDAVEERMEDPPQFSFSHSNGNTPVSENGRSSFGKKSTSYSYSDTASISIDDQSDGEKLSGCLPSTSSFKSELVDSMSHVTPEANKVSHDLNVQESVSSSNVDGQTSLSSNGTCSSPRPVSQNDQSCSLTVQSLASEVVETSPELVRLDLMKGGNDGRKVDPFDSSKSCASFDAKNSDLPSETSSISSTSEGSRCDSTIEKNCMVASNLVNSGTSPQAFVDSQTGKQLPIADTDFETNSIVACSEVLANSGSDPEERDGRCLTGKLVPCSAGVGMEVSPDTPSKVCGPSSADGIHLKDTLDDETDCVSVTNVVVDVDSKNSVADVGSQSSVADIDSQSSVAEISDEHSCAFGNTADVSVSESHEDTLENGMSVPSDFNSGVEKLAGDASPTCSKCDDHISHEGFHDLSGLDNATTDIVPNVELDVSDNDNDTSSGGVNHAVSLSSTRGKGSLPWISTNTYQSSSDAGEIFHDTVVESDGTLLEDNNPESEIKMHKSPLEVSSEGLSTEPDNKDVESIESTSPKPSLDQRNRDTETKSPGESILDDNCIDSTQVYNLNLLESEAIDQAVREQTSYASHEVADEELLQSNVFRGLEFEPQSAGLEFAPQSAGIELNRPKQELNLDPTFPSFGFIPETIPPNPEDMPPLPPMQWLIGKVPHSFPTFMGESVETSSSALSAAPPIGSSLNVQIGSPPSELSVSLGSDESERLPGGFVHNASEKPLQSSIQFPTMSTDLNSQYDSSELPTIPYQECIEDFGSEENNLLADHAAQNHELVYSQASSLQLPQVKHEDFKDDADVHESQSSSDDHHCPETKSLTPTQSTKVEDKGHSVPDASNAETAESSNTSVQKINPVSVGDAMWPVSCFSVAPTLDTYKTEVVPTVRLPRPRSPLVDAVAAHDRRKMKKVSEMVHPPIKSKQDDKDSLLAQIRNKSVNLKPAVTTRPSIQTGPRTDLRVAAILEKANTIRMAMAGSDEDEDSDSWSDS
scar1_arath SCAR1, sequence (Q6AWX6 whole entry): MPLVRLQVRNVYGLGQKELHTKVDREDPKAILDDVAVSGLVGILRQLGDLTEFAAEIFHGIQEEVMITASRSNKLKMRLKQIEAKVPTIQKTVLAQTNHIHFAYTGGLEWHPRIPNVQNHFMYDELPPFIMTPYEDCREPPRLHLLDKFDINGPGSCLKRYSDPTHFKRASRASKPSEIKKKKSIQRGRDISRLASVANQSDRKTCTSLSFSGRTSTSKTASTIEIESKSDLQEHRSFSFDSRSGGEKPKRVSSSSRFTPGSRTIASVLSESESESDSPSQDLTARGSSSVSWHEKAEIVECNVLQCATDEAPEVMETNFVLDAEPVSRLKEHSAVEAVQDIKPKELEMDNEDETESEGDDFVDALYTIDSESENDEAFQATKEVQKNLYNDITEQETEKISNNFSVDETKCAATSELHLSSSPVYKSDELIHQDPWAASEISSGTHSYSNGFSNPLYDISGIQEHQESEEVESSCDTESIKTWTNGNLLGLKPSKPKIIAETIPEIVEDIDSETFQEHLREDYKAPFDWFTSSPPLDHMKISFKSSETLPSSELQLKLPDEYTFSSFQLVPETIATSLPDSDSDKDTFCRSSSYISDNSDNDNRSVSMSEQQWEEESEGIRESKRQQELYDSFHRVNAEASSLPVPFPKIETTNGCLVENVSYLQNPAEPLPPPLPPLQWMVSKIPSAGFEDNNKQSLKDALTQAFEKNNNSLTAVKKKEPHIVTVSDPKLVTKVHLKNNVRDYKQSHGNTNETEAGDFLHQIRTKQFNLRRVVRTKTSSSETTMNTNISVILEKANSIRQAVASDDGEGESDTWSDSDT
Rac-like GTP-binding protein ARAC2 (Arabidopsis thaliana (Mouse-ear cress)), Q38903 T20D, sequence (Q38903 whole entry T20D): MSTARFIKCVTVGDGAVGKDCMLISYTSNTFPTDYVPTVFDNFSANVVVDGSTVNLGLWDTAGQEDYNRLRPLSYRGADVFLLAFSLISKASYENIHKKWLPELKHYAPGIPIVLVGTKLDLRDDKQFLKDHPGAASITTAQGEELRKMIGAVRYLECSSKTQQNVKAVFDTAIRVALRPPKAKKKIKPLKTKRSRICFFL
spk1_arath SPK1, sequence (Q8SAB7 whole entry): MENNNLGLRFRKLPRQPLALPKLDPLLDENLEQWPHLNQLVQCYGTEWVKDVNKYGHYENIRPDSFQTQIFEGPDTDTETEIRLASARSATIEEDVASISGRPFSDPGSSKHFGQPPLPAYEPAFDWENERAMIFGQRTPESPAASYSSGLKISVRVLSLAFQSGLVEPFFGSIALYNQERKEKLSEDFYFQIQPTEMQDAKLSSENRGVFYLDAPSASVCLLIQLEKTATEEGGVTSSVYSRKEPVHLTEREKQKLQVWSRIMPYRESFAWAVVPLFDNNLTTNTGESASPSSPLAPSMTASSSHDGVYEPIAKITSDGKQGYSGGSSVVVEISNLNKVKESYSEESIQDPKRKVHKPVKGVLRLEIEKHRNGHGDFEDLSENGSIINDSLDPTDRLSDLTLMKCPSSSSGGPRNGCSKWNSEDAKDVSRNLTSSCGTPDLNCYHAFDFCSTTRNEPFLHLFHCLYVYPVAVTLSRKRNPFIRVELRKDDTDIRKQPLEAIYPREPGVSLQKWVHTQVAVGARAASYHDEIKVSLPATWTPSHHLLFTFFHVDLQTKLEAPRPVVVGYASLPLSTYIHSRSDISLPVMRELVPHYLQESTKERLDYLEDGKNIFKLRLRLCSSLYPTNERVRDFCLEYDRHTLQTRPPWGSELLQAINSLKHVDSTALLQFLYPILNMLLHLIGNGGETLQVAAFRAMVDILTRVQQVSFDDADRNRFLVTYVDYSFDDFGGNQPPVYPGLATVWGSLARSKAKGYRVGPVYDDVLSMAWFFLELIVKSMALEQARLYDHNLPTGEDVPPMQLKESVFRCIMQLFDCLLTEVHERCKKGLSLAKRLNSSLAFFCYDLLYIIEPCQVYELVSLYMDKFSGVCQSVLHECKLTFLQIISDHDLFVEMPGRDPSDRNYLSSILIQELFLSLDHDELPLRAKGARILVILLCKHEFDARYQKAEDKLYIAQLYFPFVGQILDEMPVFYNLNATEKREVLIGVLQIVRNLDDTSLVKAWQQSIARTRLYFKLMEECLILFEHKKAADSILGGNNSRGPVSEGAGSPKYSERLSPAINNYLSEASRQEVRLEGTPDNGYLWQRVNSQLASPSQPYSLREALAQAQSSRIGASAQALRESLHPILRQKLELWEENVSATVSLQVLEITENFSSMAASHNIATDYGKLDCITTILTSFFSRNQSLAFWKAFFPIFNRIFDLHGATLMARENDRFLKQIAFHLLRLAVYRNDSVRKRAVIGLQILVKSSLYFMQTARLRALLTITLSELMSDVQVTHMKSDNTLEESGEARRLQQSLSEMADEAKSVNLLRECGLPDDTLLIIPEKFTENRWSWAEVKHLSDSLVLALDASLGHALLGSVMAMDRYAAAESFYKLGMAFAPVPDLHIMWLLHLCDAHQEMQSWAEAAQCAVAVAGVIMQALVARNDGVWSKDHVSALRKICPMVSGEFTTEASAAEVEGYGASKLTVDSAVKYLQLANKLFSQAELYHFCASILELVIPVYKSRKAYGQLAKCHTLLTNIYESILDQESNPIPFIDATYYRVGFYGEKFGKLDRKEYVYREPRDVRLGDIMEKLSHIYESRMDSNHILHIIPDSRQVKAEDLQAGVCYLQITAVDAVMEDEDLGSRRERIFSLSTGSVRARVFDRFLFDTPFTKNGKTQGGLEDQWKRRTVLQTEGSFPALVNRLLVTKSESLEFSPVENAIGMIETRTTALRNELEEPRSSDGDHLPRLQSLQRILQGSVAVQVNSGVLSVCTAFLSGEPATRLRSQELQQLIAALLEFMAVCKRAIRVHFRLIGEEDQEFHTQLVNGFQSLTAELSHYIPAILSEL

For the substance “Rac-like GTP-binding protein ARAC2 (Arabidopsis thaliana (Mouse-ear cress)), Q38903 T20D”, the “effect of a mutation on the interaction” value in the experiment with scar2_arath SCAR2 is recorded as “disrupting interaction”.

With “Rac-like GTP-binding protein ARAC9 (Arabidopsis thaliana (Mouse-ear cress)), Q9XGU0 G27V”, the “effect of a mutation on the interaction” value with scarl_arath WAVE5, with spk1_arath SPK1 and in the experiment with scar1_arath SCAR1 was “disrupting interaction” throughout.
